This note sets out measurements from US5565354 (Sandoz Ltd., dated 1996).

The target in test [1] is serum-derived variant HBsAg, sample 'Patient #3 (264)' (hepatitis B virus). Description: sandwich RIA, PE1-1 solid-adsorbed and ZM1-2 125I-labelled, patient serum HBsAg.
Test [2] addresses serum-derived variant HBsAg of Patient #2 (hepatitis B virus). The test is described as above.
Test [3] addresses serum-derived variant HBsAg, sample 'Patient #4 (251)' (hepatitis B virus). Described as above.
Test [4] deals with T1, HBsAg subtype ayw (hepatitis B virus, UniProt P03138). As to the kind of experiment: solid phase RIA, 125I-labelled antibody on solid adsorbed HBsAg ayw, room temperature.
In test [5] the target is T1, HBsAg subtype ayw. Description: inhibition ELISA, soluble HBsAg ayw pre-incubated with antibody, HBsAg-coated well, 37 C. (In general: An ELISA detects its analyte on a solid surface through an enzyme-linked reagent.)
In test [6] the target is hepatitis B surface antigen (HBsAg), preparation and subtype not stated (hepatitis B virus). As to the kind of experiment: AUSAB radioimmunoassay (Abbott), compared on a weight basis.
For test [7], the target named is HBsAg of control HBsAg-positive serum (hepatitis B virus). Description: sandwich RIA, PE1-1 solid-adsorbed and ZM1-2 125I-labelled; the control itself.
Test [8] deals with HBsAg in serum from a hepatitis B positive patient (hepatitis B virus).
For test [9], the target named is HBsAg of control HBsAg-positive serum (hepatitis B virus). Description: sandwich RIA, solid-adsorbed and 125I-labelled ZM1-2; the control itself.
Test [10] deals with serum-derived variant HBsAg, sample 'Patient #3 (264)' (hepatitis B virus). Description: sandwich RIA, solid-adsorbed and 125I-labelled ZM1-2, patient serum HBsAg.
Test [11] addresses serum-derived variant HBsAg of Patient #2 (hepatitis B virus). The description is as above.
The target of test [12] is serum-derived variant HBsAg, sample 'Patient #4 (251)' (hepatitis B virus). The description is as above.

As a reminder, the IC50 is the concentration that inhibits the measured activity by half. The low end stands for greater potency in that assay, the high end for weaker potency in that assay.

B1: human monoclonal antibody PE1-1 (antibody, V domains shown)
VH: QVQLVESGGGVVQPGRSLRLSCAASGFTFSRYGMHWVRQAPGKGLEWVAVISYDGSNKWYADSVKGRFTISRDNSKNTLFLQMHSLRAADTGVYYCAKDQLYFGSQSPGHYWVQGTLVTVSS
VL: QSQLTQPPSVSVAPGQTARITCGGDNIGSKSVNWFQQKPGQAPVLVVYDDNERPSGISERFSGSNSGNTATLTISRVEAGDEADYYCQVWDSSSDHVVFGGGTKLTVL
As for B1, the relative reactivity (relative to control) came out at 0.173 in [1], 0.07 in [2], 0.024 in test [3] and 1 in test [7]. In addition, the results for the Ka in test [4] and in test [5] were 3.6e+09 M⁻¹ and roughly 2e+09 M⁻¹, respectively. In [6], this molecule showed a potency relative to the Bureau of Biologics reference hepatitis B immune globin of 435 times. The molecule further displayed a potency relative to the commercial hepatitis B immune globulin preparations in test [6] greater than 200 times.

B2: human monoclonal antibody ZM1-2 (antibody, V domains shown)
VH: QVQLQESGPGLVKAAETLSLTCTVSRGSFSDYFWNWFRQPAGKRLEWLGRVYTSGSVDYNPSLKSRVTVSVDTSKKQFSLRLSSVTVADTAVYYCARGLSGFDYWGQGALVTVSP
VL: DIQMTQSPSSVSASVGDRVTVTCRASQGISSWLAWYQQKPGKAPKLLIHAASSLQSGVPSRFIGSGSGTDFTLTITSLQAEDFATYYCQQADSLPFTFGGGTKVDFKR
Turning to B2, the Ka in [4] was 1.5e+09 M⁻¹; in [5] it was roughly 7e+08 M⁻¹. Moreover, in test [8], the IC50 was determined as 0.076 µg/mL. Moreover, the relative reactivity (relative to control) in test [9] amounted to 1; in [10], 0.179; in test [11], 0.233; in test [12] it was 0.01.

B3: human monoclonal antibody ZM1-1 (antibody, V domains shown)
VH: EVQLVESGGGLVQPGGSLRLSCAASGFTFSRYDMYWVRQATGKGLEWVSAIGPTGDTYYADSVKGRFTISRENAKNSLYLTMNGLRAGDTAVYYCARDLELWGQGTLVTVSS
VL: DVVVTQSPLSLPVTLGQPASISCRSSLSLVDSDGNTYLNWFLQRPGQSPRRLIYQLSSRDSGVPDRFSGSGSGTDFTLKISRVEAEDVGVYYCMQGTHWPITFGQGTRLEIKR
Turning to B3, the Ka in test [4] is 5e+09 M⁻¹; in test [5], roughly 1e+08 M⁻¹.
